# Values quoted from earlier work as cited in paper PMC12990809.
# What was measured:
# Assay in all cases: pulldown
# Details in all cases: 20 nM protein, 1.5 uM RNA pool; 20 mM HEPES pH 7.8, 70 mM KCl, 10 mM NaCl, 10% glycerol, 2 mM DTT, 0.1 ug/uL BSA; 30 min, 4 C (protocol of this paper; not …); cited from earlier work
# [1] = molecular target: T1, LmjF.35.4130 (Leishmania major) (UniProt E9AFP0)
# T1 sequence: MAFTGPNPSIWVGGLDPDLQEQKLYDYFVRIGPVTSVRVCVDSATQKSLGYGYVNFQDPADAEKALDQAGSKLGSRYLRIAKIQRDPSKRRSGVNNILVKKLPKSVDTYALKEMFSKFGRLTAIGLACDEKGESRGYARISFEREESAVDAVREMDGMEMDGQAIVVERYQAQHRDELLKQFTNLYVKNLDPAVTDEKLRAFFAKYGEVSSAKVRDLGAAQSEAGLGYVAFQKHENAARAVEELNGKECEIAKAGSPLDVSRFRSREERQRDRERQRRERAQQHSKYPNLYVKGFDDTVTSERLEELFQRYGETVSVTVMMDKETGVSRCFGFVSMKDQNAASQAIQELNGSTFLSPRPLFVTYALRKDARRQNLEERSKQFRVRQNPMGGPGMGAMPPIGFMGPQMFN
# [2] = molecular target: T2, syncrip (Xenopus tropicalis) (UniProt A0A8J0QJ86)
# T2 sequence: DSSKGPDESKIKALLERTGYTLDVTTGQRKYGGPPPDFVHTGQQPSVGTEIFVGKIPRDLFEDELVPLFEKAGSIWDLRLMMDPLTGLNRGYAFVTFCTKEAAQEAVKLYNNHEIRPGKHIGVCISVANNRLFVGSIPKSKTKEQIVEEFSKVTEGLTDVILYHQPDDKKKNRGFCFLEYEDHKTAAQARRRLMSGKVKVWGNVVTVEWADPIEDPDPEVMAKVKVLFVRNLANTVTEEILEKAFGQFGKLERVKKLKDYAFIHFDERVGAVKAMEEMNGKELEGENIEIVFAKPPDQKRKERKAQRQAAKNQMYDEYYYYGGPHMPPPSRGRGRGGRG
# [3] = molecular target: T3, estExt_fgeneshHS_pg.C_730016 (Naegleria gruberi) (UniProt D2W041)
# T3 sequence: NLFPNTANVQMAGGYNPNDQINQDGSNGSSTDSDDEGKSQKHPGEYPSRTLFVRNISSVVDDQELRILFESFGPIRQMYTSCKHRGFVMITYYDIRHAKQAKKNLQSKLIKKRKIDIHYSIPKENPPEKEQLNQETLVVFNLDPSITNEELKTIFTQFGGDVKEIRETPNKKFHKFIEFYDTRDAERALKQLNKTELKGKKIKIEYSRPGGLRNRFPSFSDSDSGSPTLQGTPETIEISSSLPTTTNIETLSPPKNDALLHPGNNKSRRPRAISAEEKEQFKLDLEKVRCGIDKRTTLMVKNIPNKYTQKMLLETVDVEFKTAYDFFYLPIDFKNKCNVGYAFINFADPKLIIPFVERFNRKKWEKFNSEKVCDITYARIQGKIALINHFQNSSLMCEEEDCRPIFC
# [4] = molecular target: T4, TVAG_267990 (Trichomonas vaginalis) (UniProt A2DLE8)
# T4 sequence: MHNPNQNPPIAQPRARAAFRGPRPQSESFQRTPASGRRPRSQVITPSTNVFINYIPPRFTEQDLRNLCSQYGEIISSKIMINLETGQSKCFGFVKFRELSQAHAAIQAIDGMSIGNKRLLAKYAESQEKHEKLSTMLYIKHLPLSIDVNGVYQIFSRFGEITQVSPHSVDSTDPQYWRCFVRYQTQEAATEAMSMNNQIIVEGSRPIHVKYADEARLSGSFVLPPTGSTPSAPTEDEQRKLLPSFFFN
# [5] = molecular target: T5, TVAG_002940 (Trichomonas vaginalis) (UniProt A2EZR7)
# T5 sequence: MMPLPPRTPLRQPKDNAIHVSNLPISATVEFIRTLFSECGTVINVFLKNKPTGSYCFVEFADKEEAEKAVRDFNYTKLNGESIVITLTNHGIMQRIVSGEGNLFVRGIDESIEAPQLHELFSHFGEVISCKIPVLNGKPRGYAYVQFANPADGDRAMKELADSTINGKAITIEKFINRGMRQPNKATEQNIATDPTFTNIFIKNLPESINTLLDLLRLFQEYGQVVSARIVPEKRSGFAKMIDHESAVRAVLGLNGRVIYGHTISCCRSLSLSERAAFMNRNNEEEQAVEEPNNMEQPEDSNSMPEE
# [6] = molecular target: T6, Tb09.211.0930 (Trypanosoma brucei) (UniProt Q38E63)
# T6 sequence: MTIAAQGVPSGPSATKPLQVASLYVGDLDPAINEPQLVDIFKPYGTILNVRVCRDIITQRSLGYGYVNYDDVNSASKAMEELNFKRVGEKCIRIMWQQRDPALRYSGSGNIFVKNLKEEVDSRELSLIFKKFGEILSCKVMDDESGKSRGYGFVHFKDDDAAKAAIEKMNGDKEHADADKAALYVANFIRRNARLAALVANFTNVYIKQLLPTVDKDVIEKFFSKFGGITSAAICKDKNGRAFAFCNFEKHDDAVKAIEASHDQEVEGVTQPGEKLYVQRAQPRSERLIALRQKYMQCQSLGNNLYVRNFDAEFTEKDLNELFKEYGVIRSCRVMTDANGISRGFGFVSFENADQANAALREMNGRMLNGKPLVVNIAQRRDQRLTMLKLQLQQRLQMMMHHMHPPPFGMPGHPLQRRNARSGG
# [7] = molecular target: e_gw1.09.00.326.1 (Ostreococcus tauri) (UniProt A0A090N3Z5)
# [8] = molecular target: T7, NEMVEDRAFT_v1g104011 (Nematostella vectensis) (UniProt A7S488)
# T7 sequence: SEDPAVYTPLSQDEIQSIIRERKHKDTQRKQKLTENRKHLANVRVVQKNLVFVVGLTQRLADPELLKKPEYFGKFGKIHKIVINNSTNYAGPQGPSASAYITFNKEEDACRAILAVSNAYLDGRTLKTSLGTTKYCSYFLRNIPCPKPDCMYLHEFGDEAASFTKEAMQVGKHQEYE
# [9] = molecular target: T8, ANKHD1 (Homo sapiens) (UniProt Q8IWZ3)
# T8 sequence: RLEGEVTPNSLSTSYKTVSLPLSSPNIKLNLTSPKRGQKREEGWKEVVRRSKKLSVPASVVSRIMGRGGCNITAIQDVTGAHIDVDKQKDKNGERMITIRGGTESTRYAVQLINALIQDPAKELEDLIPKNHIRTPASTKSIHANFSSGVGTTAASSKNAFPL
# [10] = molecular target: SRSF10 (Homo sapiens) (UniProt O75494)
# [11] = molecular target: eIF-2alpha (Drosophila melanogaster) (UniProt P41374)
# [12] = molecular target: T9, LmjF.35.2550 (Leishmania major) (UniProt E9AF78)
# T9 sequence: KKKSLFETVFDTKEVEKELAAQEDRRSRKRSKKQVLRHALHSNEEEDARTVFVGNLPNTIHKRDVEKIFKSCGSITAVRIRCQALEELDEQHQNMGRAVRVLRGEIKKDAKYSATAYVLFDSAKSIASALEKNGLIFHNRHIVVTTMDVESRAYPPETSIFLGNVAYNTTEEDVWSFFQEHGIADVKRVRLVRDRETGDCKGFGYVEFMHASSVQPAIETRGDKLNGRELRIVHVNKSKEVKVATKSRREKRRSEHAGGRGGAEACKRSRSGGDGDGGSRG
# [13] = molecular target: T10, RBM47 (Gallus gallus) (UniProt A0A8V0YMK0)
# T10 sequence: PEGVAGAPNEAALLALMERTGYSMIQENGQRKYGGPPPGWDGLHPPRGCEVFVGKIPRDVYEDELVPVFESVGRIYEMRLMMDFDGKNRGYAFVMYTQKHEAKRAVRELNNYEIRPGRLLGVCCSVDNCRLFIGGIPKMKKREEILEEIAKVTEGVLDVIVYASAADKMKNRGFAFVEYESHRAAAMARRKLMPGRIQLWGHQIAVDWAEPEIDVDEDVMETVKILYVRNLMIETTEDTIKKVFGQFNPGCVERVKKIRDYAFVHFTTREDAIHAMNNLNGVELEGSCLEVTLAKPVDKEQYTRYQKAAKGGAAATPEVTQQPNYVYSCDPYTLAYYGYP
# [14] = molecular target: T11, rbm47 (Xenopus tropicalis) (UniProt A0A8J0QCA8)
# T11 sequence: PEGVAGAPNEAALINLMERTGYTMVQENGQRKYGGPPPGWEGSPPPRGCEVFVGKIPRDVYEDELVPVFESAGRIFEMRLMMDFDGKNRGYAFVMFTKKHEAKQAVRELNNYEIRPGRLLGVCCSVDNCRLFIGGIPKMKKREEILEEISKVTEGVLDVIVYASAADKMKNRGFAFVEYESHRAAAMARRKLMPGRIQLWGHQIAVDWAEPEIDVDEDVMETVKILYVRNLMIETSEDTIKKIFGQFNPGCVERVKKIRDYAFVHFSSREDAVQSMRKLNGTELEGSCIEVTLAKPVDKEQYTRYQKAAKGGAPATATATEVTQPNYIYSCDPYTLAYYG
# [15] = molecular target: T12, Rb97D (Drosophila melanogaster) (UniProt Q02926)
# T12 sequence: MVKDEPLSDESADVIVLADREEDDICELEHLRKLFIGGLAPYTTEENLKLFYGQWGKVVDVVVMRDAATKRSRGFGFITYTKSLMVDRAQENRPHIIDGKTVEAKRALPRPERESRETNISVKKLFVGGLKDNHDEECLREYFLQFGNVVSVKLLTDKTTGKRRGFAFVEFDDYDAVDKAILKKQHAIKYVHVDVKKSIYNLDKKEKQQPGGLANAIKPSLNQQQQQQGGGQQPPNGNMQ
# [16] = molecular target: T13, TVAG_129710 (Trichomonas vaginalis) (UniProt A2DI67)
# T13 sequence: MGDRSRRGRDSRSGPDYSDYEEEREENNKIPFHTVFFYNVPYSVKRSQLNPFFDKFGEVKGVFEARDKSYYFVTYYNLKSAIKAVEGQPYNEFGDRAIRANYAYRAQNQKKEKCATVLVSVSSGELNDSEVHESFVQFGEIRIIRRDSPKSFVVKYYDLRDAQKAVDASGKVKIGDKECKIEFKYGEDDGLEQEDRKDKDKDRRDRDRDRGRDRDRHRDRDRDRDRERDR
# [17] = molecular target: aret (Drosophila melanogaster) (UniProt C8VV87)
# [18] = molecular target: PTBP1 (Homo sapiens) (UniProt P26599)
# [19] = molecular target: T14, tiar-1 (Caenorhabditis elegans) (UniProt Q95QV8)
# T14 sequence: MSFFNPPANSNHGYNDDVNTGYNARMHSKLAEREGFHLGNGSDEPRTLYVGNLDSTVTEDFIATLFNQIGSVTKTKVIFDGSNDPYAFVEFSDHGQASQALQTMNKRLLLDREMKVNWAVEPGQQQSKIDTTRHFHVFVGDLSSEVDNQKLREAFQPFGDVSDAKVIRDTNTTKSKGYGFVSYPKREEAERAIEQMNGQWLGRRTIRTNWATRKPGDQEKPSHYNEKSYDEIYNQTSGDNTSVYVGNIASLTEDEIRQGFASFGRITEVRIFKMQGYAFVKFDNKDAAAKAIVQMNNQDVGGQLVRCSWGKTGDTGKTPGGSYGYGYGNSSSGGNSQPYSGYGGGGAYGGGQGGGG
# [20] = molecular target: T15, e_gw1.03.00.367.1 (Ostreococcus tauri) (UniProt Q01DB3)
# T15 sequence: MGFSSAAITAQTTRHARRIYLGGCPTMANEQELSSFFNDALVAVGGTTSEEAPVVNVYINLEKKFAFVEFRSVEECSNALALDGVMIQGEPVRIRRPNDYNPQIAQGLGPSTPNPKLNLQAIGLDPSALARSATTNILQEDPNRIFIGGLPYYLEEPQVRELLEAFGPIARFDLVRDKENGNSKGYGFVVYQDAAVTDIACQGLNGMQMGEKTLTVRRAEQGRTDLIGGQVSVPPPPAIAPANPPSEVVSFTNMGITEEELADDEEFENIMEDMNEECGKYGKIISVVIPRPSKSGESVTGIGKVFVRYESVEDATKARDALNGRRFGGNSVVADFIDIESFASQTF
# PTBP1 (Homo sapiens), sequence (P26599 other isoform, or with tags, fused parts or gaps): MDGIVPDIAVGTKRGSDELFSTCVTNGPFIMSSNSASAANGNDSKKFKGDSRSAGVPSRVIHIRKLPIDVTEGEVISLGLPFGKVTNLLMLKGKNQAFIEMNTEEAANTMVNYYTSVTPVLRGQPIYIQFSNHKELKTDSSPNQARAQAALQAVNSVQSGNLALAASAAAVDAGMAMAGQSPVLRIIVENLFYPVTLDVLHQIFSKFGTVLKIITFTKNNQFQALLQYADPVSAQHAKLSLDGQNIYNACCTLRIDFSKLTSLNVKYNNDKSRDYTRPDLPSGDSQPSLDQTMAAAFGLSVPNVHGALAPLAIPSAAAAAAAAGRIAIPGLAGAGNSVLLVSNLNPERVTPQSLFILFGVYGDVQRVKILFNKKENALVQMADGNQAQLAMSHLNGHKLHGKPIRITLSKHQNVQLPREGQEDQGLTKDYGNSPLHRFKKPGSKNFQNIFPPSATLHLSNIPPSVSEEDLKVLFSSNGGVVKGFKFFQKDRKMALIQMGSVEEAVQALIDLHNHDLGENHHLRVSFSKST
# SRSF10 (Homo sapiens), sequence (O75494 1-92): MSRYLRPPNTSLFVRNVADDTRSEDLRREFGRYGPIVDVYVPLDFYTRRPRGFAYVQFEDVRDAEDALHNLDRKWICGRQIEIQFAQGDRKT
# e_gw1.09.00.326.1 (Ostreococcus tauri), sequence (A0A090N3Z5 entry or part of it): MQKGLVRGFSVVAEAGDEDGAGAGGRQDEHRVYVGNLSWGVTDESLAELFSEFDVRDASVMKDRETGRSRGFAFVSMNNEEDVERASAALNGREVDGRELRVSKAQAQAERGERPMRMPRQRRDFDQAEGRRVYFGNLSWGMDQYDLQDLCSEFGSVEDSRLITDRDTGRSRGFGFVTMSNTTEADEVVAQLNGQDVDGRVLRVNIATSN
# aret (Drosophila melanogaster), sequence (C8VV87 entry or part of it): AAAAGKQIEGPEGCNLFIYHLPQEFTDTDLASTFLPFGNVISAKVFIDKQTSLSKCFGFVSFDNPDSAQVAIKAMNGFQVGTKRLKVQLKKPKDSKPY
# eIF-2alpha (Drosophila melanogaster), sequence (P41374 whole entry): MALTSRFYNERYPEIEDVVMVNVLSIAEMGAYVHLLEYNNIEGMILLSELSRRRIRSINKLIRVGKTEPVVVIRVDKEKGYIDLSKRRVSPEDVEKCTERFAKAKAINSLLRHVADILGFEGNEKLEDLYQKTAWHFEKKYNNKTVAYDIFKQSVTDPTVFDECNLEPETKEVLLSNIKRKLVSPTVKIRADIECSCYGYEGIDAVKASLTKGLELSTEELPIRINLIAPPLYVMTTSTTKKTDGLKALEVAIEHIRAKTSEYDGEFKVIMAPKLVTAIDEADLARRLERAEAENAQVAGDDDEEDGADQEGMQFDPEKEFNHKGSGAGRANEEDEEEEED
substance,measurement,setting,value
AAAACAAA [RNAcompete motif RNCMPT00255],binding signal (z-score (mean of top ten 7-mers)),[1],8.22
AAAUU [RNAcompete motif RNCMPT00281],binding signal (z-score (mean of top ten 7-mers)),[2],7.01
AAUUUUG [RNAcompete motif RNCMPT00261],binding signal (z-score (mean of top ten 7-mers)),[3],19.4
ACCAUG [RNAcompete motif RNCMPT00259],binding signal (z-score (mean of top ten 7-mers)),[4],19.9
AGAAAA [RNAcompete motif RNCMPT00257],binding signal (z-score (mean of top ten 7-mers)),[5],12.5
AGAAANA [RNAcompete motif RNCMPT00253],binding signal (z-score (mean of top ten 7-mers)),[6],9.59
AGAACA [RNAcompete motif RNCMPT00263],binding signal (z-score (mean of top ten 7-mers)),[7],8.19
AGACACA [RNAcompete motif RNCMPT00278],binding signal (z-score (mean of top ten 7-mers)),[8],12.7
AGACGU [RNAcompete motif RNCMPT00002],binding signal (z-score (mean of top ten 7-mers)),[9],22.8
AGAGAAA [RNAcompete motif RNCMPT00090],binding signal (z-score (mean of top ten 7-mers)),[10],14.3
CUCUGU [RNAcompete motif RNCMPT00273],binding signal (z-score (mean of top ten 7-mers)),[11],6.48
GAACG [RNAcompete motif RNCMPT00254],binding signal (z-score (mean of top ten 7-mers)),[12],15.2
GAUGAU [RNAcompete motif RNCMPT00279],binding signal (z-score (mean of top ten 7-mers)),[13],8.4
GAUGAUU [RNAcompete motif RNCMPT00280],binding signal (z-score (mean of top ten 7-mers)),[14],7.8
UAGGUA [RNAcompete motif RNCMPT00272],binding signal (z-score (mean of top ten 7-mers)),[15],8.77
UGUUUG [RNAcompete motif RNCMPT00258],binding signal (z-score (mean of top ten 7-mers)),[16],7.64
UNUUUGUGU [RNAcompete motif RNCMPT00270],binding signal (z-score (mean of top ten 7-mers)),[17],14.8
UUUUCU [RNAcompete motif RNCMPT00268],binding signal (z-score (mean of top ten 7-mers)),[18],6.14
UUUUUU [RNAcompete motif RNCMPT00256],binding signal (z-score (mean of top ten 7-mers)),[19],11.2
UUUUUU [RNAcompete motif RNCMPT00262],binding signal (z-score (mean of top ten 7-mers)),[20],11.3
